Measured values reported in PMC11633383, “Role of VapBC4 toxin-antitoxin system of Sulfolobus acidocaldarius in heat stress adaptation” (mBio, 2024).

Molecular target: T1, VapC4 toxin (Saci_1813) with a C-terminal histidine tag (Sulfolobus acidocaldarius DSM639, UniProt Q4J7W2 1-140, FITC (Alexa-488) fluorescent probe, site not stated, F/P ratio approximately 0.5 (in the FRET assay only))
T1 construct: also called Saci VapC4; pAG153; not shown: His tag, C-terminal, kept
T1 sequence (looked up): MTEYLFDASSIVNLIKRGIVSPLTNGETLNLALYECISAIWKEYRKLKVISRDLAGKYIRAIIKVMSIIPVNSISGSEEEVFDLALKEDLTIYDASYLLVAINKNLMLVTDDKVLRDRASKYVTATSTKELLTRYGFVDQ
Experiment: FRET or BRET; FITC-labelled VapC4 (100 nM, donor) titrated with TRITC-labelled VapB4 (25-2,000 nM, acceptor); excitation 495 nm, FITC emission at 520 nm, 60°C; fit to a hyperbolic binding equation
Details: both partners purified

B1: VapB4 antitoxin (Saci_1812) with a C-terminal histidine tag (natural protein, Sulfolobus acidocaldarius DSM639, UniProt Q4J7W4 1-77, looked up)
chain: MDSSGYVTISAKVPRELKELMDKYGIKPGPVIRKALEEEVRRRAIQELEKELKDLKEKSQISDEDVARLIREDRESR
modifications: TRITC (Alexa-532) fluorescent probe, site not stated, F/P ratio approximately 0.5 (in the FRET assay only)
notes: Unlabelled in the RNase neutralisation assay, TRITC-labelled in FRET; also called pAG154; source: E. coli BL21(DE3)-RIL, purified (Ni2+-NTA, dialysis)
Kd: 40 ± 2.2 nM
